Measured values: the nanobody polyreactivity screen of Harvey et al. (2022)

test: yeast display, Sf9 membrane polyspecificity reagent, FACS + sequencing; frameworks hold sequencing errors
Summary of the method: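 Galactose-induced (36–48 hours) yeast carrying a synthetic nanobody display library were exposed to 10% biotinylated, detergent-solubilized Sf9 membrane reagent at 4 °C for 1 hour. FACS followed streptavidin microbead enrichment, using low and high (top ~1%) gates for expression (anti-HA) and reagent binding (streptavidin). Colony PCR, MiSeq 2 × 250 sequencing and CDR-length filtering followed. Labels for polyreactivity reflect the gate of origin.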

For “QVQHVESVGGLDQAGRSLRLSCAASGSTFTPYAMGWYRQAPGKESELVAGITGNGGSTRYADSVKGRFTISRDNAKKTVYLQMNSLKPEDTAVYYCAARWTRQRYRTSYYSWGQGTQVTVSS”, which “polyreactivity (PSR sort gate)” value is on record?
Its value is “high polyreactivity”.

Which “polyreactivity (PSR sort gate)” value does the source give for “QVQLVESGGGLVQAGGSLRLSCAASGFTFISNAMGWYRQAPGKERELVAAISSSGGRTYYADSVKGRFTSSRDNAKNTVYLQMNSLKPEDTAVYYCNADRSLLYSRKIEYDYWGQGTQVSVSS” here?
The value was “low polyreactivity”.

Which “polyreactivity (PSR sort gate)” value does the source give for “QFQLVESGRGLVQAGGSLRLSCAASGLIFRYYAMGWYRQAPGKERELVAAIRTGGSTYYADSVKGRFTISRDNAKNTVYLQMNSLKPEDTAVYYCAALLLSWYRTSYDFDYWGQGTQVTVSS” here?
Its value is “high polyreactivity”.

Which “polyreactivity (PSR sort gate)” value does the source give for “QVQLVESGGGLVQAGGSLRLSCAASGITFKAYVMGWYRQAPGKERELVAAITRSGGRTYYADSVKGRFTISRDNAKNTVFLQMNSLKPEDTAVYYCAADGPHHGDGYWGQGTQVTVSS” here?
Its value is “high polyreactivity”.

With “QVQLVESGGGLVQAGGSLRLSCDASGRIFRYNSMGWYRQAPGKEREFVAAITWRGGSTYYADSVKGRFTISRDNAKYNVYFQMNSLKPEDTAVYYCATRSPFGAAYEYGYWGQGTQVTVSS” as the sequence, how does the “polyreactivity (PSR sort gate)” value read?
Its value is “high polyreactivity”.

Which “polyreactivity (PSR sort gate)” value does the source give for “QVQLVESGGGLVQAGGSLRLSCAASGRTFRAYAMGWYRQAPGKERELVAAISRSGGRTYYADSVKGRFIISRDNAKITVYLQMNSLKPEDTAVYYCAAGSNIWGQGTQVTVSS” here?
The value was “high polyreactivity”.

For “QVQLVESVGGLVQAGGSLLLSCAASGGIFWVYAMGWYRQAPGKERELVAAISNSDTSTSYADSVKGRFTISRDNAKNTVFLQMNSLKPEDTAVYYCNADSPSLSGDYWGQGTQVTVSS”, which “polyreactivity (PSR sort gate)” value is on record?
The value was “low polyreactivity”.

For “QVQLVESGGGLFQAGGSLRLICAASGRIFDVNAMGWYRQAPGKERELVAAISWSGGITYYADSVKGRFTISRDNAKNTVYLQINSLKPEDTAVYYCAADKYQGYTFYQGYPGGGGYWGQGTQVTVSS”, which “polyreactivity (PSR sort gate)” value is on record?
The value was “low polyreactivity”.

With “QVQLVESGGGLVQAGGSLRLSCAASGLIFGGTAMGWYRQAPGKERELVAAITYRTGSTYYADSVKGRFTISRDNAKNTVYLQMNSLKPEDTAVYYCAAAVSLGYPVAFYYWGQGTQVTVSS” as the sequence, how does the “polyreactivity (PSR sort gate)” value read?
The value was “low polyreactivity”.

Which “polyreactivity (PSR sort gate)” value does the source give for “QVQIVESGGGLVQAGGSLRLSCAASGSTFKWYAMGWYRQSTGKERQLVAAITSTDSTTYADSLKGRFTISRDNAKNTVYLHMNSLKPEDTAVYYCNRLYYHWYGGLDYWGLGTQVTVSS” here?
Its value is “high polyreactivity”.

For “QVQLVESGGGLVQAGGSLSLSCAASGSIFGENAKGWYRQAPGKERELVAAITWGGTSTYYADSVKGRFTISRDNAKNTVYLQMNSLKPEDTAVYYCNTPRYVRRQGVKRYDYWGQGTQVTVSS”, which “polyreactivity (PSR sort gate)” value is on record?
The value was “low polyreactivity”.

With “QVQLVESGGGLVQAGGSLRLSCAASGSTFPRYAMGWYRQAPGKERELVAAMSSSGGRTYYADSVKGRFTISRDNAKNTVYLQMNSLKPEDTAVYYCAARAFKTIIYDYWGQGTQVTVSS” as the sequence, how does the “polyreactivity (PSR sort gate)” value read?
Its value is “high polyreactivity”.

With “QVQLVESGGGLVQAGGSLRLSCAASGSIFVGNAMGWYRQAPGKERELVAAISRSGGRTYYADSVKRRFTISRDNAKITVYLQMNSLKPEHTAVYYCNAYGWEQLQMDSWGQGTQVTVSS” as the sequence, how does the “polyreactivity (PSR sort gate)” value read?
The value was “high polyreactivity”.

For “QVQLVESGGGLVQAGGSLRLSCAASGSTFYRYALGWYRQAPGKERELVAAISRSGGNTFYADSVKGRFTISRDNAKNTVYLQMNRLKPEDTAVYYCAALRSWYAQTSGMDYWGQGTHVTVSS”, which “polyreactivity (PSR sort gate)” value is on record?
The value was “high polyreactivity”.

With “QVQLVESGGGLVQGGGSLRLSCAASGLIFYRNDMVWNRQAPGKERELVDAISKNGANTYYADSVKGRFTSSRDNAKNTVYLHMNCLKREDTAVYYCAKGVYYPWWYVQPEHDYWGQVTQVTVSS” as the sequence, how does the “polyreactivity (PSR sort gate)” value read?
The value was “high polyreactivity”.

With “QVQLVESGGGLVQAGGSLRLSCAASGSTLRYYAMGWYRQAPGKEREFVAAISWRGGSTYYADSVKGRFTISRDNAKNTVYLQMNSLKPEDTAVYYCAAKALYAYRLYDYWGQGTQVTVSS” as the sequence, how does the “polyreactivity (PSR sort gate)” value read?
Its value is “high polyreactivity”.

Which “polyreactivity (PSR sort gate)” value does the source give for “QVQLVESGGGLVQAGGSLRLSCAASGSTFKYYAMGWYRQAPGKERELVASISRGGSTNYADSVKGRFTISRDNAKNTVYLQMNSLKPEDTAVYYCAKRRAGTAYDYWGQGTQVTVSS” here?
The value was “high polyreactivity”.
